From patent US20160159928A1
“And” between values parts separate entries of the source, which are not always exact repeats. Identical values can stand only once. Like-named read-outs stand apart in the source and are kept apart here. Blank lines part the entries; values can stand above or below the substance they belong to.

Key:
Test in all cases: cell-based or functional assay
Kv1.3 (human) = Kv1.3 (human) (UniProt P22001)
CXCR1 [1] = target: CXCR1 (UniProt P25024)
CXCR1 [2] = target: CXCR1 (UniProt P25024); remark: listed apart in the source

CXCR1, sequence (P25024 whole entry): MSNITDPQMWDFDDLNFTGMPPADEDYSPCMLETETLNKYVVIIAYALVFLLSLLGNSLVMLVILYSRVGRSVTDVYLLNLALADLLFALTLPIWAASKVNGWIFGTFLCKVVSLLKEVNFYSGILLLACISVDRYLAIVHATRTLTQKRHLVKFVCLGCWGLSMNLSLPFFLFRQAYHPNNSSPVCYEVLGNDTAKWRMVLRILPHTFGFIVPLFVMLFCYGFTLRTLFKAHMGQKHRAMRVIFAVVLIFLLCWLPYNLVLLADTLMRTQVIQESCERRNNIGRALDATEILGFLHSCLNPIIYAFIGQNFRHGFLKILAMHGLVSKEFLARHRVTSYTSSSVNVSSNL
interleukin 8 (soluble), sequence (P10145 28-99 limits assumed): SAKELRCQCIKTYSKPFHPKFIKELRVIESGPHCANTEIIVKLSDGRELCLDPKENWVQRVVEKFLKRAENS
Kv1.3 (human), sequence (P22001 whole entry): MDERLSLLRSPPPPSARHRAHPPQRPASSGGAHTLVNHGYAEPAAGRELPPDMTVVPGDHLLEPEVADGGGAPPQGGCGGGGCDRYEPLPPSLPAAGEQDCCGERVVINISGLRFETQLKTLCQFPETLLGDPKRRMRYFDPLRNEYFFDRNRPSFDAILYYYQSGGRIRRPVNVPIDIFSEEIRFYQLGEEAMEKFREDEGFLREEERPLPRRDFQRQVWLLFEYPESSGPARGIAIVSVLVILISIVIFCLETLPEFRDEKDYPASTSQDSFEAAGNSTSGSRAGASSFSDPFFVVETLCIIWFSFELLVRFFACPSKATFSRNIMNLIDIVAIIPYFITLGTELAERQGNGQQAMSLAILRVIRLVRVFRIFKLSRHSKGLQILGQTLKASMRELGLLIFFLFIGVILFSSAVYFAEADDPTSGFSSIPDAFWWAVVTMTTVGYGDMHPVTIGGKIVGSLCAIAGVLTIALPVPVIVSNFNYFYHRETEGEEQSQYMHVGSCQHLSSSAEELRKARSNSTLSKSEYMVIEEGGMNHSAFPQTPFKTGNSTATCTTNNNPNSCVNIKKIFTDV

IL-2 ELISA (A450), Donor 1, [IgG] 0.01 nM (Kv1.3 (human)): 2 A450 and 2.15 A450 | IL-2 ELISA (A450), Donor 1, [IgG] 0.75 nM (Kv1.3 (human)): 2.11 A450 and 2.04 A450 | IL-2 ELISA (A450), Donor 1, [IgG] 68 nM (Kv1.3 (human)): 1.48 A450 and 1.55 A450 | IL-2 ELISA (A450), Donor 2, [IgG] 0.01 nM (Kv1.3 (human)): 1.61 A450 and 1.48 A450 | IL-2 ELISA (A450), Donor 2, [IgG] 0.75 nM (Kv1.3 (human)): 1.56 A450 and 1.52 A450 | IL-2 ELISA (A450), Donor 2, [IgG] 68 nM (Kv1.3 (human)): 1.5 A450 and 1.37 A450 | TNF-α ELISA (A450), Donor 1, [IgG] 0.01 nM (Kv1.3 (human)): 1.62 A450 and 1.66 A450 | TNF-α ELISA (A450), Donor 1, [IgG] 0.75 nM (Kv1.3 (human)): 1.69 A450 and 1.65 A450 | TNF-α ELISA (A450), Donor 1, [IgG] 68 nM (Kv1.3 (human)): 1.02 A450 and 1.13 A450 | TNF-α ELISA (A450), Donor 2, [IgG] 0.01 nM (Kv1.3 (human)): 2.07 A450 and 1.77 A450 | TNF-α ELISA (A450), Donor 2, [IgG] 0.75 nM (Kv1.3 (human)): 2.04 A450 and 1.85 A450 | TNF-α ELISA (A450), Donor 2, [IgG] 68 nM (Kv1.3 (human)): 1.88 A450 and 1.54 A450
Substance: Negative Control IgG (antibody)

average RLU at 0.01 nM (CXCR1 [1]): 440 RLU | average RLU at 0.08 nM (CXCR1 [1]): 504 RLU | average RLU at 0.23 nM (CXCR1 [1]): 940 RLU | average RLU at 0.69 nM (CXCR1 [1]): 1940 RLU | average RLU at 2.06 nM (CXCR1 [1]): 4110 RLU | average RLU at 6.17 nM (CXCR1 [1]): 5870 RLU | average RLU at 18.52 nM (CXCR1 [1]): 7300 RLU | average RLU at 31.5 nM (CXCR1 [1]): 55500 RLU | average RLU at 55.56 nM (CXCR1 [1]): 7360 RLU | average RLU at 166.67 nM (CXCR1 [1]): 6770 RLU | average RLU at 500.00 nM (CXCR1 [1]): 5720 RLU | luminescence at 0.1 nM IL-8 domains (CXCR1 [1]): 4200 | luminescence at 0.4 nM IL-8 domains (CXCR1 [1]): 6530 | luminescence at 0.5 nM IL-8 domains (CXCR1 [1]): 9790 | luminescence at 1.6 nM IL-8 domains (CXCR1 [1]): 12200 | luminescence at 2.2 nM IL-8 domains (CXCR1 [1]): 25700 | luminescence at 6.25 nM IL-8 domains (CXCR1 [1]): 28600 | luminescence at 9.9 nM IL-8 domains (CXCR1 [1]): 50300 | luminescence at 25 nM IL-8 domains (CXCR1 [1]): 50500 | luminescence at 44 nM IL-8 domains (CXCR1 [1]): 54100 | luminescence at 100 nM IL-8 domains (CXCR1 [1]): 70200 | luminescence at 200 nM IL-8 domains (CXCR1 [1]): 50400 | luminescence at 0.4 nM IL-8 domains (CXCR1 [2]): 4930 | luminescence at 1.6 nM IL-8 domains (CXCR1 [2]): 8730 | luminescence at 6.25 nM IL-8 domains (CXCR1 [2]): 22300 | luminescence at 25 nM IL-8 domains (CXCR1 [2]): 42200 | luminescence at 100 nM IL-8 domains (CXCR1 [2]): 54000
Substance: interleukin 8 (soluble) (from UniProt P10145 28-99) (ligand)

average RLU at 0.001 nM IgG (CXCR1 [1]): 7500 RLU | average RLU at 0.004 nM IgG (CXCR1 [1]): 7390 RLU | average RLU at 0.013 nM IgG (CXCR1 [1]): 7050 RLU | average RLU at 0.040 nM IgG (CXCR1 [1]): 6970 RLU | average RLU at 0.120 nM IgG (CXCR1 [1]): 7330 RLU | average RLU at 0.359 nM IgG (CXCR1 [1]): 6690 RLU | average RLU at 1.076 nM IgG (CXCR1 [1]): 7180 RLU | average RLU at 3.228 nM IgG (CXCR1 [1]): 7030 RLU | average RLU at 9.685 nM IgG (CXCR1 [1]): 7170 RLU | average RLU at 29.056 nM IgG (CXCR1 [1]): 7100 RLU | average RLU at 87.167 nM IgG (CXCR1 [1]): 7140 RLU | average RLU at 261.500 nM IgG (CXCR1 [1]): 7540 RLU
Substance: IgG VH4-4 CDR3 BsaI (lacking the IL-8 insert) (antibody)

IL-2 ELISA (A450); Donor 1; 150 nM IgG (Kv1.3 (human)): 0.445 A450 | IL-2 ELISA (A450); Donor 2; 150 nM IgG (Kv1.3 (human)): 0.355 A450 | TNF-α ELISA (A450); Donor 1; 150 nM IgG (Kv1.3 (human)): 0.11 A450 | TNF-α ELISA (A450); Donor 2; 150 nM IgG (Kv1.3 (human)): 0.058 A450
Substance: BLV1H12 (antibody)
